The values below come from patent US20130288305A1.

What all share (assay): cell-based or functional assay
Assay [1] concerns the target FGFR2-IIIb N550K expressed on FDCP-1 cells (human), P21802.
Assay [2] deals with FGFR2-IIIb S252W expressed on FDCP-1 cells (human), P21802.
For assay [3], the target named is wild type FGFR2-IIIb expressed on FDCP-1 cells (human), P21802.

B1: antibody 4B9 (antibody)
heavy: EVQLQQSGTVLARPGASVKMSCKTSGYTFTSYWMHWVKQRPGQGLEWIGAIYPGNSDTDYSQKFKGKATLTAVTSATTAYMELSSLTNEDSAVYYCSKFDYWGQGTTLTVSSAKTTPPSVYPLAPGSAAQTNSMVTLGCLVKGYFPEPVTVTWNSGSLSSGVHTFPAVLQSDLYTLSSSVTVPSSTWPSQTVTCNVAHPASSTKVDKKIVPRDCGCKPCICTVPEVSSVFIFPPKPKDVLTITLTPKVTCVVVDISKDDPEVQFSWFVDDVEVHTAQTQPREEQFNSTFRSVSELPIMHQDWLNGKEFKCRVNSAAFPAPIEKTISKTKGRPKAPQVYTIPPPKEQMAKDKVSLTCMITDFFPEDITVEWQWNGQPAENYKNTQPIMDTDGSYFVYSKLNVQKSNWEAGNTFTCSVLHEGLHNHHTEKSLSHSPGK
light: QIVLTQSPALMSASPGEKVTMTCSASSSVNYMYWYQQKPRSSPKPWIYLTSNLASGVPARFSGRGSGTSYSLTISSMEAEDAATYYCQQWSSNPYTFGGGTKLEIKRADAAPTVSIFPPSSEQLTSGGASVVCFLNNFYPRDINVKWKIDGSERQNGVLNSWTDQDSKDSTYSMSSTLTLTKDEYERHNSYTCEATHKTSTSPIVKSFNRNEC
As for B1, the IC50 of inhibition of cell proliferation (MTT assay) in assay [1] stood at 8.1 nM; in assay [2], 3 nM; in assay [3] it was 0.3 nM.
